Our source for the stoichiometry N values is article PMC12866822.

By stoichiometry N is commonly meant a count of units in the complex or per binding partner.

This assay concerns the target pyruvate kinase M2 (PKM2), endogenous in RAW264.7 macrophages (mouse (endogenous in RAW264.7)) (UniProt P52480). Kind of assay: cross-linking; lysates (RIPA buffer) of cells with endogenous PKM2 (RAW264.7, LX2, WRL68) treated with 1 µM DSS on ice for 1 h, SDS-PAGE, blot with PKM2 antibody; cells treated with the four compounds, or LPS with FE (12.5, 25, 50 µM) or DASA-58.

Chain of pyruvate kinase M2 (PKM2), endogenous in RAW264.7 macrophages, P52480 1-531 (enzyme; other documents disagree on this pair) (P52480 whole entry): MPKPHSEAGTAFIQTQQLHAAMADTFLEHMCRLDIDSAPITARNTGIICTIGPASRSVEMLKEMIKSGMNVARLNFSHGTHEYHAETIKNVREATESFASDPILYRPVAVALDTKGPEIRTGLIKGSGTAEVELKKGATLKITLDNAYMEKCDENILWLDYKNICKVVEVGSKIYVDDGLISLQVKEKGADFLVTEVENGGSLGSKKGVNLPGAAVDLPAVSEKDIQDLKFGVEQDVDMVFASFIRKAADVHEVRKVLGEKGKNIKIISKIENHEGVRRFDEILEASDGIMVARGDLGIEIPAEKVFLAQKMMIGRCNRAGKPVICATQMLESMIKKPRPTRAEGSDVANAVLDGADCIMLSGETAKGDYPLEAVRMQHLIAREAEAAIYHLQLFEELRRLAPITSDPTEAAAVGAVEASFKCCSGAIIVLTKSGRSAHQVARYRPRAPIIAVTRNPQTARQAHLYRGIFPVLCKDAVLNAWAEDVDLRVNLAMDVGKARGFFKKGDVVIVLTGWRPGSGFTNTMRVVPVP

“pyruvate kinase M2 (PKM2), endogenous in RAW264.7 macrophages, P52480 1-531 (enzyme; other documents disagree on this pair)” registered a stoichiometry N of 4.
